# Earlier results as cited in article PMC3433420.
# Like-named read-outs stand apart in the source and are kept apart here.
# Key:
# Details in all cases: cited from earlier work
# ABL2 (Homo sapiens) = ABL2 (Homo sapiens) (UniProt P42684)
# PIK3R2-N (Homo sapiens) [1] = biological target: PIK3R2-N (Homo sapiens) (UniProt O00459)
# SHC2-PTB (Homo sapiens) [2] = biological target: SHC2-PTB (Homo sapiens) (UniProt P98077)
# GRB7 (Homo sapiens) = GRB7 (Homo sapiens) (UniProt Q14451)
# NCK2 (Homo sapiens) = NCK2 (Homo sapiens) (UniProt O43639)
# YES1 (Homo sapiens) = YES1 (Homo sapiens) (UniProt P07947)
# CRKL (Homo sapiens) [3] = biological target: CRKL (Homo sapiens) (UniProt P46109)
# VAV1 (Homo sapiens) = VAV1 (Homo sapiens) (UniProt P15498)
# ITK (Homo sapiens) [4] = biological target: ITK (Homo sapiens) (UniProt Q08881)
# SYK-NC (Homo sapiens) = SYK-NC (Homo sapiens) (UniProt P43405)
# PIK3R3-NC (Homo sapiens) [5] = biological target: PIK3R3-NC (Homo sapiens) (UniProt Q92569)
# ITK (Homo sapiens) [6] = biological target: ITK (Homo sapiens) (UniProt Q08881); remark: listed apart in the source
# RASA1-N (Homo sapiens) [7] = biological target: RASA1-N (Homo sapiens) (UniProt P20936)
# RASA1-N (Homo sapiens) [8] = biological target: RASA1-N (Homo sapiens) (UniProt P20936); remark: listed apart in the source
# VAV3 (Homo sapiens) = VAV3 (Homo sapiens) (UniProt Q9UKW4)
# PIK3R3-N (Homo sapiens) = PIK3R3-N (Homo sapiens) (UniProt Q92569)
# PIK3R2-N (Homo sapiens) [9] = biological target: PIK3R2-N (Homo sapiens) (UniProt O00459); remark: listed apart in the source
# PIK3R3-C (Homo sapiens) = PIK3R3-C (Homo sapiens) (UniProt Q92569)
# CRKL (Homo sapiens) [10] = biological target: CRKL (Homo sapiens) (UniProt P46109); remark: listed apart in the source
# ITK (Homo sapiens) [11] = biological target: ITK (Homo sapiens) (UniProt Q08881); remark: listed apart in the source
# LYN (Homo sapiens) = LYN (Homo sapiens) (UniProt P07948)
# SH3BP2 (Homo sapiens) = SH3BP2 (Homo sapiens) (UniProt P78314)
# BCAR3 (Homo sapiens) = BCAR3 (Homo sapiens) (UniProt O75815)
# SHC2-PTB (Homo sapiens) [12] = biological target: SHC2-PTB (Homo sapiens) (UniProt P98077); remark: listed apart in the source
# HSH2D (Homo sapiens) = HSH2D (Homo sapiens) (UniProt Q96JZ2)
# PLCG2-NC (Homo sapiens) = PLCG2-NC (Homo sapiens) (UniProt P16885)
# CRKL (Homo sapiens) [13] = biological target: CRKL (Homo sapiens) (UniProt P46109); remark: listed apart in the source
# PIK3R3-NC (Homo sapiens) [14] = biological target: PIK3R3-NC (Homo sapiens) (UniProt Q92569); remark: listed apart in the source
# RASA1-C (Homo sapiens) = RASA1-C (Homo sapiens) (UniProt P20936)
# TNS3 (Homo sapiens) = TNS3 (Homo sapiens) (UniProt Q68CZ2)
# Chain of TNS3 (Homo sapiens) (Q68CZ2 1167-1287): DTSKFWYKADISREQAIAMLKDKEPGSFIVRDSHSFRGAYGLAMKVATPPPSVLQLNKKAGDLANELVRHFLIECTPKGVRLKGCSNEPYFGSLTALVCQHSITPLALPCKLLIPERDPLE
# Chain of CRKL (Homo sapiens) (P46109 9-107): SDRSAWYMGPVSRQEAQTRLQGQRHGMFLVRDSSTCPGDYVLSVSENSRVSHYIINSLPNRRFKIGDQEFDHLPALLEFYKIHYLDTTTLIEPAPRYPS
# Chain of ITK (Homo sapiens) (Q08881 234-343): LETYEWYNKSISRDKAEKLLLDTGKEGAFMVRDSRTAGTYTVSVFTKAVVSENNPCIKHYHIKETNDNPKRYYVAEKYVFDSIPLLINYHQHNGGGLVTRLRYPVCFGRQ
# Chain of RASA1-N (Homo sapiens) (P20936 176-446): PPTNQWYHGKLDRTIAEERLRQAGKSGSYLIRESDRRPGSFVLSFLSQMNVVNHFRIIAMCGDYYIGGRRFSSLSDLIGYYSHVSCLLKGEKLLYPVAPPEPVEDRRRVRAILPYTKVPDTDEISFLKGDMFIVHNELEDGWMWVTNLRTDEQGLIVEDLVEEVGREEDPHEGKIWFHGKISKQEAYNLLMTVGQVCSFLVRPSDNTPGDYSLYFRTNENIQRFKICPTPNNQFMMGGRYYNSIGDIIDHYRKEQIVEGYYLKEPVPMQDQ
# Chain of PIK3R2-N (Homo sapiens) (O00459 325-721): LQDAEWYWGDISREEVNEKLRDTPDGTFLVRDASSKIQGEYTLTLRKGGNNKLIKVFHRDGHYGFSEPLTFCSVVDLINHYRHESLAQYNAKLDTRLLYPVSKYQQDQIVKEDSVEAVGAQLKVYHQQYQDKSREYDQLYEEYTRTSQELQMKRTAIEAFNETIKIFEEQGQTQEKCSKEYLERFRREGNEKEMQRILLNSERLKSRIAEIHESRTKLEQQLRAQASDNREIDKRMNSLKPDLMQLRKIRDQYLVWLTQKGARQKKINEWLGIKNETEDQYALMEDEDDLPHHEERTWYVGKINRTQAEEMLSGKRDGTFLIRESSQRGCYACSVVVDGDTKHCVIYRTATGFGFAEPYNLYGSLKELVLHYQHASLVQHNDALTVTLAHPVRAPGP
# Chain of SHC2-PTB (Homo sapiens) (P98077 482-582): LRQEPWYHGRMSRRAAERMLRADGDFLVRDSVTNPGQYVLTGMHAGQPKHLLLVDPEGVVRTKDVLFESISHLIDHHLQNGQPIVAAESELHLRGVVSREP
# Chain of RASA1-C (Homo sapiens) (P20936 176-446): as the sequence (P20936 176-446) above
# Chain of VAV3 (Homo sapiens) (Q9UKW4 667-771): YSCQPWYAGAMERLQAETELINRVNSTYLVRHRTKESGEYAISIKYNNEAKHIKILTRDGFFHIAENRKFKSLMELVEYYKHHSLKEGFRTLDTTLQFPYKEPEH
# Chain of PLCG2-NC (Homo sapiens) (P16885 527-740): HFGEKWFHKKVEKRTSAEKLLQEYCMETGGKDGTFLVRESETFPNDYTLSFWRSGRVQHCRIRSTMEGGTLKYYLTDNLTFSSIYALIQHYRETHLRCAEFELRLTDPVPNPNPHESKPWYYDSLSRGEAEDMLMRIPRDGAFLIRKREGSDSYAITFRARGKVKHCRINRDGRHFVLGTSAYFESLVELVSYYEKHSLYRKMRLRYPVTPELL
# Chain of YES1 (Homo sapiens) (P07947 153-260): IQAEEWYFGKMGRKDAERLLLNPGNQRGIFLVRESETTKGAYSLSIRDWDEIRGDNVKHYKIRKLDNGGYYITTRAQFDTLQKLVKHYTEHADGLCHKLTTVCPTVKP
# Chain of SH3BP2 (Homo sapiens) (P78314 452-560): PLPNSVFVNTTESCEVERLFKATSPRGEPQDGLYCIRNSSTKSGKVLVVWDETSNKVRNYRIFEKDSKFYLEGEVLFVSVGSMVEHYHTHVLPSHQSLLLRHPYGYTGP
# Chain of GRB7 (Homo sapiens) (Q14451 426-532): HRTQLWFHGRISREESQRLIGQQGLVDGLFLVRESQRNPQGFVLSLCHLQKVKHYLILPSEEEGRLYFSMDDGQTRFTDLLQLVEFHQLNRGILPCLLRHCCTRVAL
# Chain of VAV1 (Homo sapiens) (P15498 666-770): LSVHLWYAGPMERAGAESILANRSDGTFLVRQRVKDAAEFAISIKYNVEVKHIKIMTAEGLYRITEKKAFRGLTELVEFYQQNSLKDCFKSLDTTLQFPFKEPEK
# Chain of NCK2 (Homo sapiens) (O43639 280-380): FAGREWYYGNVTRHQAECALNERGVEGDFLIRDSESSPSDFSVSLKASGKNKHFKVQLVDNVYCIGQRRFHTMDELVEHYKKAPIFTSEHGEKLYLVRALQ
# Chain of BCAR3 (Homo sapiens) (O75815 149-258): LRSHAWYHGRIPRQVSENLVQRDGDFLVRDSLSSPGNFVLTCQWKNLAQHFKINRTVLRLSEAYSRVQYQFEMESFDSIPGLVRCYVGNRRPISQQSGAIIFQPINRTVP
# Chain of LYN (Homo sapiens) (P07948 124-231): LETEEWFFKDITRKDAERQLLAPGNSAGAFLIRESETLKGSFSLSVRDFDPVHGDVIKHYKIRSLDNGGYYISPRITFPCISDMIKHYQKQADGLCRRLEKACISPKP
# Chain of ABL2 (Homo sapiens) (P42684 168-268): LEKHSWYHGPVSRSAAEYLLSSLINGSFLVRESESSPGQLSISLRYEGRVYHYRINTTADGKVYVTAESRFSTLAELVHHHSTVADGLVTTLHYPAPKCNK
# Chain of HSH2D (Homo sapiens) (Q96JZ2 29-130): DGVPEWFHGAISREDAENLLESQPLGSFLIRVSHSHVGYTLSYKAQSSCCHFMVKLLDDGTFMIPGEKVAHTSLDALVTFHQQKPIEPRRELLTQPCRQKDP
substance,measurement,setting,value
…pYLVPQQGF,apparent Kd (screen),ABL2 (Homo sapiens),2 µM
same,apparent Kd (screen),PIK3R2-N (Homo sapiens) [1],1.95 µM
same,apparent Kd (screen),SHC2-PTB (Homo sapiens) [2],2 µM
same,apparent Kd (screen),GRB7 (Homo sapiens),2 µM
same,apparent Kd (screen),NCK2 (Homo sapiens),2 µM
same,apparent Kd (screen),YES1 (Homo sapiens),1.17 µM
same,apparent Kd (screen),CRKL (Homo sapiens) [3],2 µM
same,apparent Kd (screen),VAV1 (Homo sapiens),2 µM
same,apparent Kd (screen),ITK (Homo sapiens) [4],2 µM
same,apparent Kd (screen),SYK-NC (Homo sapiens),0.372 µM
same,apparent Kd (screen),PIK3R3-NC (Homo sapiens) [5],0.527 µM
same,apparent Kd (screen),ITK (Homo sapiens) [6],0.445 µM
…pYLIPQQGFd,apparent Kd (screen),RASA1-N (Homo sapiens) [7],0.488 µM
same,apparent Kd (screen),RASA1-N (Homo sapiens) [8],0.769 µM
same,apparent Kd (screen),VAV3 (Homo sapiens),2 µM
same,apparent Kd (screen),PIK3R3-N (Homo sapiens),0.47 µM
same,apparent Kd (screen),PIK3R2-N (Homo sapiens) [9],0.424 µM
same,apparent Kd (screen),PIK3R3-C (Homo sapiens),0.193 µM
…pYEEMRAFQ,apparent Kd (screen),CRKL (Homo sapiens) [10],1.25 µM
same,apparent Kd (screen),ITK (Homo sapiens) [11],0.499 µM
same,apparent Kd (screen),LYN (Homo sapiens),0.34 µM
same,apparent Kd (screen),SH3BP2 (Homo sapiens),2 µM
same,apparent Kd (screen),BCAR3 (Homo sapiens),2 µM
…pYWDQDPPE,apparent Kd (screen),SHC2-PTB (Homo sapiens) [12],0.457 µM
same,apparent Kd (screen),HSH2D (Homo sapiens),2 µM
same,apparent Kd (screen),PLCG2-NC (Homo sapiens),2 µM
same,apparent Kd (screen),CRKL (Homo sapiens) [13],1.46 µM
same,apparent Kd (screen),PIK3R3-NC (Homo sapiens) [14],0.783 µM
same,apparent Kd (screen),RASA1-C (Homo sapiens),2 µM
same,apparent Kd (screen),TNS3 (Homo sapiens),1.29 µM
